Article PMC5347692, “Serpin E2 promotes breast cancer metastasis by remodeling the tumor matrix and polarizing tumor associated macrophages” (Oncotarget, 2016)

Biological target: T1, human recombinant tPA (human, UniProt P00750 36-562)
T1 construct: The sentence 'Human recombinant serpinE2 and tPA were purchased from R&D' is read as human for both; source: bought: R&D
Test: SDS-stable complex seen by western blot; recombinant serpinE2 and tPA bound to each other beforehand, complex immunoprecipitated with Ab11 and Protein G, western blot with a serpinE2-specific antibody; complex band above uncomplexed serpinE2
Conditions: both partners purified

T1 sequence (P00750 36-562): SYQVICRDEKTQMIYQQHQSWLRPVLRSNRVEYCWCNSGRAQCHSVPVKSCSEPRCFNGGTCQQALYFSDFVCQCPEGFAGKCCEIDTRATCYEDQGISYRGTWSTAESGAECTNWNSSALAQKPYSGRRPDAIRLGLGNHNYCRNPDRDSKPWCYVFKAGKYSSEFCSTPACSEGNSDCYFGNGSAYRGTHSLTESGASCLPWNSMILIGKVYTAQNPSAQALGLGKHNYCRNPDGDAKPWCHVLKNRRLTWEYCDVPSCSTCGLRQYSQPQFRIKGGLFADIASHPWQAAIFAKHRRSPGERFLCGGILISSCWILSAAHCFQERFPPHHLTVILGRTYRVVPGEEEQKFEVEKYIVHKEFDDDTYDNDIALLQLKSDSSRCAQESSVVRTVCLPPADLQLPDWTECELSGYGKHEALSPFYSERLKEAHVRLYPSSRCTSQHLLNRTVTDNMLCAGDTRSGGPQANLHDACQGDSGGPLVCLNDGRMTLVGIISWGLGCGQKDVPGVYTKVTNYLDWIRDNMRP

B1: human recombinant serpinE2 (natural protein, UniProt P07093 20-398, looked up)
chain: SHFNPLSLEELGSNTGIQVFNQIVKSRPHDNIVISPHGIASVLGMLQLGADGRTKKQLAMVMRYGVNGVGKILKKINKAIVSKKNKDIVTVANAVFVKNASEIEVPFVTRNKDVFQCEVRNVNFEDPASACDSINAWVKNETRDMIDNLLSPDLIDGVLTRLVLVNAVYFKGLWKSRFQPENTKKRTFVAADGKSYQVPMLAQLSVFRCGSTSAPNDLWYNFIELPYHGESISMLIALPTESSTPLSAIIPHISTKTIDSWMSIMVPKRVQVILPKFTAVAQTDLKEPLKVLGITDMFDSSKANFAKITTGSENLHVSHILQKAKIEVSEDGTKASAATTAILIARSSPPWFIVDRPFLFFIRHNPTGAVLFMGQINKP
notes: serpinE2 (PN-1, protease nexin-1), human, recombinant, bought; With tPA it forms the serpin/protease complex that is seen as a band above uncomplexed serpinE2 on the western blot; also called PN-1; purified human serpinE2; source: bought: R&D
binding result: binds
